Data set [1] has as its target T1, CeHEX-4 (Caenorhabditis HEX-4) (Caenorhabditis elegans, UniProt Q8WTK2).
T1 sequence (Q8WTK2 25-491): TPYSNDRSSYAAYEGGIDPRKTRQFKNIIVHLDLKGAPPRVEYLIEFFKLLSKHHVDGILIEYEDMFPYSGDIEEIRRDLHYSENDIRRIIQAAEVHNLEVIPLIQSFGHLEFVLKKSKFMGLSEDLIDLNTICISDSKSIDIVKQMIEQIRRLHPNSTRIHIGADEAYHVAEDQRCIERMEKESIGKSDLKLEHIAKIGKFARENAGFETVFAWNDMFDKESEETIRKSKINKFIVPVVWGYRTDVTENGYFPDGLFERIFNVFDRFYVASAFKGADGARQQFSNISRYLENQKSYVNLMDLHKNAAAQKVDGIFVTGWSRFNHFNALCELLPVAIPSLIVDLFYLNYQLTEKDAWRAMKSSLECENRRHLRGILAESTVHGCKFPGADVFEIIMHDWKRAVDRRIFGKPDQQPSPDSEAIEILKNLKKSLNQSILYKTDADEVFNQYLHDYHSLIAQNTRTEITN
Kind of data set: inhibition of pNP-β-GalNAc hydrolysis (A405), Cheng-Prusoff from IC50; Dixon plot. Conditions: substrate pNP-β-GalNAc, McIlvaine buffer, 37°C. The format is biochemical.

Data set [2] concerns the target T2, DmFDL (Drosophila melanogaster FDL) (Drosophila melanogaster, UniProt Q8WSF3, W506A).
T2 construct: soluble form without transmembrane domain, alpha-factor secretion signal, N-terminal His-tag, P. pastoris X-33 (codon-optimized; also made in Hi5 insect cells), Ni-NTA purified
T2 sequence (Q8WSF3 37-660 W506A limits assumed): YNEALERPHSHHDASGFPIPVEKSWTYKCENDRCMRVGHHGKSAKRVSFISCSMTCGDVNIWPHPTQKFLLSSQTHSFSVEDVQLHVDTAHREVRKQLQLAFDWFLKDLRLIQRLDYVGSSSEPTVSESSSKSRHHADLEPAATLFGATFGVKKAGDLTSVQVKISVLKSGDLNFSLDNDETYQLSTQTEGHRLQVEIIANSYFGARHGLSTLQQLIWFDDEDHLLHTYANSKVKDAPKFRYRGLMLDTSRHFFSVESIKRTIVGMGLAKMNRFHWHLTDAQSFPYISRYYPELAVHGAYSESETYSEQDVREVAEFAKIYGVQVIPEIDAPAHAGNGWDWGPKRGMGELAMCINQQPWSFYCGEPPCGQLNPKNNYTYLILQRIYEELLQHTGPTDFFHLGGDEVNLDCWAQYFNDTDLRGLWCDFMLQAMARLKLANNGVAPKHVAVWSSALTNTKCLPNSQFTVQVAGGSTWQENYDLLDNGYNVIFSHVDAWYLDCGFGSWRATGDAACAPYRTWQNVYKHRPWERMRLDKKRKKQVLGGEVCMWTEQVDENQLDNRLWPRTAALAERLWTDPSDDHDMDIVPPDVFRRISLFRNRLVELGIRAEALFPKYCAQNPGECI
Kind of data set: p-nitrophenol release, A405. It counts as biochemical. Conditions: 5 mM substrate, McIlvaine buffer, 30°C.

Data set [3] addresses T3, DmFDL (Drosophila melanogaster FDL) (Drosophila melanogaster, UniProt Q8WSF3, G400V).
T3 construct: soluble form without transmembrane domain, alpha-factor secretion signal, N-terminal His-tag, P. pastoris X-33 (codon-optimized; also made in Hi5 insect cells), Ni-NTA purified
T3 sequence (Q8WSF3 37-660 G400V limits assumed): T2 sequence (Q8WSF3 37-660 W506A limits assumed) with G364V, A470W
The data set is described as follows: p-nitrophenol release, A405. Conditions: 5 mM substrate, McIlvaine buffer, 30°C. The format is biochemical.

Substrate in data set [4]: CC(=O)N[C@H]1[C@H](Oc2ccc([N+](=O)[O-])cc2)O[C@H](CO)[C@@H](O)[C@@H]1O
The data set is described as follows: p-nitrophenol release, A405, non-linear fit. It counts as biochemical, Caenorhabditis elegans. The settings on record: McIlvaine buffer at optimal pH (5-6), 37°C.

Substrate in data set [5]: CC(=O)N[C@H]1[C@H](Oc2ccc([N+](=O)[O-])cc2)O[C@H](CO)[C@H](O)[C@@H]1O
The data set is described as follows: p-nitrophenol release, A405, non-linear fit. The format is biochemical, Caenorhabditis elegans. Conditions: McIlvaine buffer at optimal pH (5-6), 37°C.

Substrate in data set [6]: CC(=O)N[C@H]1[C@H](Oc2ccc([N+](=O)[O-])cc2)O[C@H](CO)[C@@H](O)[C@@H]1O
The data set is described as follows: purified protein, by the assay type. On the set-up: p-nitrophenol release from pNP-glycoside substrate, A405, non-linear Michaelis-Menten fit. The method, then: (§1) Determination of Km, specific activity, kcat and Ki Standard enzymatic activity assays were performed using pNP-β-GlcNAc (Sigma, USA) and pNP-β-GalNAc (Sigma, USA) as a substrate. The assays were performed at a substrate concentration of 5 mM in McIlvaine buffer, pH 4.0–6.0 at 30°C for Drosophila FDL and at 37°C for the other hexosaminidases. The total reaction volume was 40 µL and incubation time was 2 h. All purified enzymes were tested for additional activities using a range of p-nitrophenyl-sugars as substrates at a concentration of 5 mM for 4 h. After the addition of 200 µL of 0.4 M glycine/NaOH pH 10.4, A405nm was determined on a Tecan Infinite M200 microtiter plate reader (Tecan, Austria). All enzymes were appropriately diluted for measurements in order to measure reactions within the linear range of the assay. Enzyme units are given in µmol product (nitrophenol) per minute.

Substrate in data set [7]: CC(=O)N[C@H]1[C@H](Oc2ccc([N+](=O)[O-])cc2)O[C@H](CO)[C@H](O)[C@@H]1O
The data set is described as follows: purified protein, by the assay type. On the set-up: p-nitrophenol release from pNP-glycoside substrate, A405, non-linear Michaelis-Menten fit. The procedure: as §1

Positions count from the first letter of the chain named.

Turning to `CC(=O)N[C@H]1C(O)O[C@H](CO)[C@H](O)[C@@H]1O` (stereo partly shown) [GalNAc, N-acetylgalactosamine], the Ki (in general, a dissociation constant, usually derived from enzyme kinetics or from competition with a known ligand) in data set [1] stood at 1000 µM.

In the case of `CC(=O)N[C@H]1[C@H](Oc2ccc([N+](=O)[O-])cc2)O[C@H](CO)[C@H](O)[C@@H]1O` [pNP-β-GalNAc, p-nitrophenyl-β-D-N-acetylgalactosaminide], the “p-nitrophenol release, A405” value in data set [2] is given as “the W506A mutant showed decreased activity toward pNP-β-GalNAc”; in data set [3] it was “the Drosophila G400V mutant showed increased”.

B1: CeHEX-2 (C. elegans HEX-2) (Caenorhabditis elegans) (protein)
chain: SYPKGGISQRALDSMQKEPQTPVLVQKRENFEESIDVAVEQESKKENPFVNQQASTENAKPITQEVKIERPSRDNEFYKNVVIHFDLKGAPPKVDYFLDLLRLIAKGGATGILLEWEDMFPWTGKLEQFKNTDAYSESDVDMILSEATKLKLDVIPLVQTFGHLEWILKYEEMRKYRENDAYPQVLCLGNEEGVEFVREMIRQVAKKHAKYGIPFFHIGADEAFEFGVCQESLDWIKKNGKNGRKQLLALAHLKAIAEFAKQQTGDSTQILAWHDMLKDFDSRLIKNLELGQIIQPVVWDYSENIITLNDYIFSALAENFPTMWASSAYKGANYPSASTSEVRHYETNNRNWIRTKQNQERKFKNGFQGIIVTGWQRYDHLAGLCETLPIGTASMMLQMQIALNAPALDLEGTRQKAATLLECQGFNVDGVKVVSNQCKYRGFQTYLIYQSEVPNLFARIDSELSKNHHLMGWANRYNRKYNISQNWYHREMLPFVQQLVGQYDRVESDLRASMKDLYFENTIDEFIYENLGEMSEKLHGYLEEIQRLDKLRAWPKRHFPIKK
notes: soluble form without transmembrane domain, alpha-factor secretion signal, C-terminal His-tag, P. pastoris X-33, Ni-NTA purified
Consider B1, for which, in data set [4], the Km (in general, the substrate concentration at which the rate is half of its maximum) was 230 ± 150 µM; the kcat (in general, the maximal rate divided by the concentration of active sites) is 8.6 ± 0.8 s⁻¹; the specificity constant (kcat/Km) (usually the second-order rate constant that governs catalysis at low substrate concentration) was 22000 ± 3600 M⁻¹ s⁻¹. Further, in data set [5], the Km was determined as 410 ± 80 µM.

B2: DmFDL (Drosophila melanogaster FDL) (Drosophila melanogaster) (protein)
chain: T2 sequence (Q8WSF3 37-660 W506A limits assumed) with A470W
notes: soluble form without transmembrane domain, alpha-factor secretion signal, N-terminal His-tag, P. pastoris X-33 (codon-optimized; also made in Hi5 insect cells), Ni-NTA purified
As to B2, in data set [6], the Michaelis-Menten constant (Km) is 1400 ± 80 µM, the kcat came to 48.2 ± 2.2 s⁻¹ and the catalytic efficiency (kcat/Km) turned out to be 42000 ± 1800 M⁻¹ s⁻¹. For the same molecule, in data set [7], the Km stood at 520 ± 30 µM, the kcat amounted to 5.6 ± 0.1 s⁻¹ and the catalytic efficiency (kcat/Km) stood at 11900 ± 800 M⁻¹ s⁻¹.

B3: CeHEX-3 (C. elegans HEX-3) (Caenorhabditis elegans) (protein)
chain: TSQFKSTTTHARFVPEPSDPRLHPNSPLQAPKAQEPAAAETTKKPSRQPHHTTAKPRTENVEINGEKYPKLSPDGNLIPQRRIVHLDLKGAPYKPEFFTELFAFFNRIQATGILLEWEDMFPFKGRLRGAINKNAYSMETVEHILQEAQKHHLQIIPLVQTMGHLEWILKLEEFAHLREDTRFPQVICFSDENAWELIKEMIEEVANVHKKYGMSYFHIGADEAFQIGICNASITQIKKEFTRERLMLWHIARTARFVKEKYPETQVLAWHDMLASAMESDIEDYKLTELLQPVLWNYAEDLDIYLPRSTWMIVRNFRNVWGSSAWKGADGPARYSTNANHYLKNHESWIKQFTMVYKDFEVVEGLIMAGWSRYDHFAVLAETIPVALPTLAMSMETMIEGRPLAGNYPVTSELLQCTPPLDLGFTATGCKFPGNRIYELINEMYQKQMQLRTYRLDDYELNGWLSRVADDYSVSSHWYIDKIENMIEMHATPLEQLADDLRFEMERIFFKDTVDEFIFTYLGEDLEWFNRKRETIRKVSTSQTFPKRPFIESAKSEKTCT
Turning to B3, in data set [4], the Km worked out at 970 ± 700 µM, the kcat came to 0.1 s⁻¹ and the kcat/Km is 200 ± 100 M⁻¹ s⁻¹. Also, in data set [5], the Km was 590 ± 140 µM, the kcat is 5.2 ± 1 s⁻¹ and the kcat/Km worked out at 7800 ± 3000 M⁻¹ s⁻¹.

B4: CeHEX-4 (Caenorhabditis HEX-4) (Caenorhabditis elegans) (protein)
chain: T1 sequence (Q8WTK2 25-491)
Consider B4, for which, in data set [4], the Km was 3470 ± 350 µM, the turnover number (kcat) came to 12.6 ± 1.4 s⁻¹ and the kcat/Km was determined as 2200 ± 100 M⁻¹ s⁻¹. In data set [5], the Km was determined as 590 ± 50 µM, the kcat was 13.8 ± 1.4 s⁻¹ and the kcat/Km turned out to be 19500 ± 2300 M⁻¹ s⁻¹.
